Experimental findings from patent publication CN106146656A (UNIV BEIJING, dated 2016) are described below.

The test deals with T1, 6×His标签 (组氨酸标签) (also: coupled to ovalbumin carrier, site not given here).
T1 construct: also called 多组氨酸标签; hexa组氨酸标签
T1 peptide: HHHHHH
The test can be described thus: indirect phage-ELISA of phage-displayed clones after three rounds of solid-phase panning on 6×His-OVA.

No end group written: not given here.

B1: 针对His标签的单域重链抗体 (特异性识别组氨酸标签的纳米抗体) (VHH)
VHH: QVQLVESGGGLVQPGQSLRLSCSAPGFTFNNFGLAWFRQAPGKEREEVACIRSHGVRTHYGASVEGRFTISRDSDNKALWLQMNDLKPEDSAVYYCAADPVPANFDTCVHNGYDYWGLGTQVTVSS
notes: also called 抗His标签单域重链抗体
Turning to B1, the binding result was “binds”.
